Reference: the RNAGym collection of RNA variant scans (doi:10.7554/elife.80360)

B1: CPEB3 Ribozyme (parent)
chain: GGGGGCCACAGCAGAAGCGUUCACGUCGCGGCCCCUGUCAGAUUCUGGUGAAUCUGCGAAUUCUGCUGU

Variants of: B1
Experiment: self-cleavage, relative activity (ratio to wild type); higher = more cleavage; co-transcriptional

First: GGGGGCCACAGCAGAAGCGUUCACGUCCCGGCCCCUGUCAGAUUCUGGUGAAUCUGCAAAUUCUGCUGU
Second: GGGGGCCACAGCAGAAGCGUUCACGUCCCGGCCCCUGUCAGAUUCUGGUGAAUCUGCUAAUUCUGCUGU
The self-cleavage of the first is lower: 0.156 for the first, 0.187 for the second.

First: GGGGGCCACAGCAGAAGCGUUCACGUUGCGGCCCCUGUCAGAUUCUGGAGAAUCUGCGAAUUCUGCUGU
Second: GGGGGCCACAGCAGAAGCGUUCACGUUGCGGCCCCUGUCAGAUUCUGGCGAAUCUGCGAAUUCUGCUGU
The self-cleavage of the first is higher: 0.442 for the first, 0.301 for the second.

Compared with GGGGGCCACAGCAGAAGCGUUCACGUCCCGGCCCCUGUAAGAUUCUGGUGAAUCUGCGAAUUCUGCUGU, GGGGGCCACAGCAGAAGCGUUCACGUCCCGGCCCCUGUUAGAUUCUGGUGAAUCUGCGAAUUCUGCUGU is higher in self-cleavage: 0.156 for the first, 0.207 for the second.

Going from GGGGGCCACAGCAGAAGCGUUCACGUCACGGCCCCUGUCAGAUUCUGGUGAAUCGGCGAAUUCUGCUGU to GGGGGCCACAGCAGAAGCGUUCACGUCACGGCCCCUGUCAGAUUCUGGUGAAUCAGCGAAUUCUGCUGU, the self-cleavage rises from 0.167 to 0.169.

First: GGGGGCCACAGCAGAAGCGUUCACGUCACGGCCCCUGUCAGAUUCUGGUGAAUCUGCGAAUUCGGCUGU
Second: GGGGGCCACAGCAGAAGCGUUCACGUCACGGCCCCUGUCAGAUUCUGGUGAAUCUGCGAAUUCCGCUGU
The self-cleavage of the first is higher: 0.205 for the first, 0.151 for the second.

Compared with GGGGGCCACAGCAGAAGCGUUCACGUCACGGCCCCUGUCAGAUUCUGGUGAUUCUGCGAAUUCUGCUGU, GGGGGCCACAGCAGAAGCGUUCACGUCACGGCCCCUGUCAGAUUCUGGUGACUCUGCGAAUUCUGCUGU is lower in self-cleavage: 0.276 for the first, 0.182 for the second.

Compared with GGGGGCCACAGCAGAAGCGUUCACGUCACGGCCCCUGUGAGAUUCUGGUGAAUCUGCGAAUUCUGCUGU, GGGGGCCACAGCAGAAGCGUUCACGUCACGGCCCCUGUCAUAUUCUGGUGAAUCUGCGAAUUCUGCUGU is lower in self-cleavage: 0.157 for the first, 0.148 for the second.

Compared with GGGGGCCACAGCAGAAGCGUUCACGUCACGGCCCCUGUCAAAUUCUGGUGAAUCUGCGAAUUCUGCUGU, GGGGGCCACAGCAGAAGCGUUCACGUCACGGCCCCAGUCAGAUUCUGGUGAAUCUGCGAAUUCUGCUGU is lower in self-cleavage: 0.178 for the first, 0.154 for the second.

Going from GGGGGCCACAGCAGAAGCGUUCACGUUGCGGCCCCUGUCAGAUUCUGGUGAAUCUGCGAAUUCAGCUGU to GGGGGCCACAGCAGAAGCGUUCACGUCACGGCCCCUGUCAGAUUUUGGUGAAUCUGCGAAUUCUGCUGU, the self-cleavage rises from 0.161 to 0.202.

Compared with GGGGGCCACAGCAGAAGCGUUCACGUCACGGCCCCUGUCAGAUUCUGGUGAAUCUGCGAAUUCUUCUGU, GGGGGCCACAGCAGAAGCGUUCACGUCACGGCCCCUGUCAGAUUCUGGUGAAUCUGCGAAUUCUACUGU is lower in self-cleavage: 0.172 for the first, 0.152 for the second.

Going from GGGGGCCACAGCAGAAGCGUUCACGUCACGGCCCCUGUCAGAUUCUGGUGAAUCUGCGAAGUCUGCUGU to GGGGGCCACAGCAGAAGCGUUCACGUCACGGCCCCUGUCAGAUUCUGGUGGAUCUGCGAAUUCUGCUGU, the self-cleavage rises from 0.214 to 0.229.

Going from GGGGGCCACAGCAGAAGCGUUCACGUCCCGGCCCCUGUCAGAUUCUGGUGAAUCUGCGACUUCUGCUGU to GGGGGCCACAGCAGAAGCGUUCACGUCCCGGCCCCUGUCAGAUUCUGGUGAAUCUGCGAAUUCUGCUGU, the self-cleavage falls from 0.217 to 0.173.

First: GGGGGCCACAGCAGAAGCGUUCACGUCACGGCCCCUGUCAGAUUCUGGUGAAUCUGCGAAUUCUGCUGU
Second: GGGGGCCACAGCAGAAGCGUUCACGUCACGGCCCCUGUCAGAUUCUGGUGAAUCUGCGAAUUCUGCUAU
The self-cleavage of the first is lower: 0.213 for the first, 0.294 for the second.

First: GGGGGCCACAGCAGAAGCGUUCACGUCACGGCCCCUGUCAGAUUCUGGUGAAUCUGCGGAUUCUGCUGU
Second: GGGGGCCACAGCAGAAGCGUUCACGUCACGGCCCCUGUCAGAUUCUGGUGAAUCUGCGCAUUCUGCUGU
The self-cleavage of the first is lower: 0.17 for the first, 0.185 for the second.

Compared with GGGGGCCACAGCAGAAGCGUUCACGUCACGGCCCCUGUCAGAUUCUGGAGAAUCUGCGAAUUCUGCUGU, GGGGGCCACAGCAGAAGCGUUCACGUCCCGGCCCCUGUCAGAUUCUGGUUAAUCUGCGAAUUCUGCUGU is lower in self-cleavage: 0.181 for the first, 0.143 for the second.

Going from GGGGGCCACAGCAGAAGCGUUCACGUCCCGGCCCCUGUCAGAUUCUGGUCAAUCUGCGAAUUCUGCUGU to GGGGGCCACAGCAGAAGCGUUCACGUCCCGGCCCCUGUCAGAUUCUGGUAAAUCUGCGAAUUCUGCUGU, the self-cleavage falls from 0.168 to 0.166.

Compared with GGGGGCCACAGCAGAAGCGUUCACGUCACGGCCCCUGUCAGAUUCUGGUGAAUCUGCGAAUGCUGCUGU, GGGGGCCACAGCAGAAGCGUUCACGUCCCGGCCCCUGUCAGAUUCUGGUGAAUAUGCGAAUUCUGCUGU is lower in self-cleavage: 0.208 for the first, 0.151 for the second.

First: GGGGGCCACAGCAGAAGCGUUCACGUCCCGGCCCCUGUCAGAUUCUGGUGAAUCUCCGAAUUCUGCUGU
Second: GGGGGCCACAGCAGAAGCGUUCACGUCCCGGCCCCUGUCAGAUUCUGGUGAAUCUACGAAUUCUGCUGU
The self-cleavage of the first is higher: 0.192 for the first, 0.181 for the second.

Going from GGGGGCCACAGCAGAAGCGUUCACGUCCCGGCCCCUGUCAGCUUCUGGUGAAUCUGCGAAUUCUGCUGU to GGGGGCCACAGCAGAAGCGUUCACGUCCCGGCCCCUGUCAGGUUCUGGUGAAUCUGCGAAUUCUGCUGU, the self-cleavage falls from 0.183 to 0.128.

Going from GGGGGCCACAGCAGAAGCGUUCACGUCACGUCCCCUGUCAGAUUCUGGUGAAUCUGCGAAUUCUGCUGU to GGGGGCCACAGCAGAAGCGUUCACGUCACGACCCCUGUCAGAUUCUGGUGAAUCUGCGAAUUCUGCUGU, the self-cleavage falls from 0.197 to 0.153.

Compared with GGGGGCCACAGCAGAAGCGUUCACGUUGCGGCCCCUGUCAGAUUCUGGUGAAUCGGCGAAUUCUGCUGU, GGGGGCCACAGCAGAAGCGUUCACGUUGCGGCCCCUGUCAGAUUCUGGUGAAUCUGCGAAGUCUGCUGU is higher in self-cleavage: 0.188 for the first, 0.277 for the second.

Compared with GGGGGCCACAGCAGAAGCGUUCACGUUGCGGCCCCUGUCAGAUUCUGGUGAAUCUGCGAAAUCUGCUGU, GGGGGCCACAGCAGAAGCGUUCACGUCACGGCCCCUGUCAGAUUCUGGUGAAACUGCGAAUUCUGCUGU is lower in self-cleavage: 0.22 for the first, 0.198 for the second.

First: GGGGGCCACAGCAGAAGCGUUCACGUCACGGCCCCUGUCAGAUUCUGGUGAAUCUGCGAAUUCUGAUGU
Second: GGGGGCCACAGCAGAAGCGUUCACGUCACGGCCCCUGUCAGAUUCUGGUGAAUCUGCGAAUUCUGUUGU
The self-cleavage of the first is higher: 0.189 for the first, 0.165 for the second.

Compared with GGGGGCCACAGCAGAAGCGUUCACGUCCCUGCCCCUGUCAGAUUCUGGUGAAUCUGCGAAUUCUGCUGU, GGGGGCCACAGCAGAAGCGUUCACGUCCCGGCCCCUGUCAGAUUCUGGUGAAUCUGCGAAUUAUGCUGU is lower in self-cleavage: 0.2 for the first, 0.186 for the second.

Compared with GGGGGCCACAGCAGAAGCGUUCACGUCCCGGCCCCUGUCAGAUUCUGGUGAAUCUGCGAAUUGUGCUGU, GGGGGCCACAGCAGAAGCGUUCACGUUGCGGCCCCUGUCAGAUUCUGGUGAAUCUGCGAAUUCUGCUGA is higher in self-cleavage: 0.198 for the first, 0.502 for the second.

First: GGGGGCCACAGCAGAAGCGUUCACGUCACUGCCCCUGUCAGAUUCUGGUGAAUCUGCGAAUUCUGCUGU
Second: GGGGGCCACAGCAGAAGCGUUCACGUCACAGCCCCUGUCAGAUUCUGGUGAAUCUGCGAAUUCUGCUGU
The self-cleavage of the first is lower: 0.155 for the first, 0.156 for the second.

Compared with GGGGGCCACAGCAGAAGCGUUCACGUCACGGCCCCUGUCAGAUUCUGGUGAAUCUGCGAAUUUUGCUGU, GGGGGCCACAGCAGAAGCGUUCACGUCCCGGCCCCUGUCAGAUUCUGGUGAGUCUGCGAAUUCUGCUGU is lower in self-cleavage: 0.195 for the first, 0.174 for the second.

First: GGGGGCCACAGCAGAAGCGUUCACGUCCCGGCCCCUGUCAGAUUCUGGUGACUCUGCGAAUUCUGCUGU
Second: GGGGGCCACAGCAGAAGCGUUCACGUCACGGCCUCUGUCAGAUUCUGGUGAAUCUGCGAAUUCUGCUGU
The self-cleavage of the first is lower: 0.198 for the first, 0.244 for the second.

Compared with GGGGGCCACAGCAGAAGCGUUCACGUCACGGCCGCUGUCAGAUUCUGGUGAAUCUGCGAAUUCUGCUGU, GGGGGCCACAGCAGAAGCGUUCACGUCACGGCCCGUGUCAGAUUCUGGUGAAUCUGCGAAUUCUGCUGU is higher in self-cleavage: 0.139 for the first, 0.188 for the second.

Compared with GGGGGCCACAGCAGAAGCGUUCACGUCACGGCCCCUGUCAGAUUCUGGUGAAUAUGCGAAUUCUGCUGU, GGGGGCCACAGCAGAAGCGUUCACGUUGCGGCCCCUGUCAGACUCUGGUGAAUCUGCGAAUUCUGCUGU is higher in self-cleavage: 0.175 for the first, 0.285 for the second.

Compared with GGGGGCCACAGCAGAAGCGUUCACGUCACGGCCCCUGUCAGAUUCUGGUCAAUCUGCGAAUUCUGCUGU, GGGGGCCACAGCAGAAGCGUUCACGUCACGGCCCCUGACAGAUUCUGGUGAAUCUGCGAAUUCUGCUGU is lower in self-cleavage: 0.226 for the first, 0.176 for the second.

First: GGGGGCCACAGCAGAAGCGUUCACGUUGCGGCCCCUGUCAGAUUCUGGUGAAGCUGCGAAUUCUGCUGU
Second: GGGGGCCACAGCAGAAGCGUUCACGUUGCGGCCCCUGUCAGAUUCUGGUGAAACUGCGAAUUCUGCUGU
The self-cleavage of the first is lower: 0.18 for the first, 0.25 for the second.

Compared with GGGGGCCACAGCAGAAGCGUUCACGUCCCGGCCCCUGUCAGAUUAUGGUGAAUCUGCGAAUUCUGCUGU, GGGGGCCACAGCAGAAGCGUUCACGUCCCGGCCCCUGUCAGAUUUUGGUGAAUCUGCGAAUUCUGCUGU is higher in self-cleavage: 0.135 for the first, 0.194 for the second.

Going from GGGGGCCACAGCAGAAGCGUUCACGUCCCGGCCCGUGUCAGAUUCUGGUGAAUCUGCGAAUUCUGCUGU to GGGGGCCACAGCAGAAGCGUUCACGUCCCGGCCACUGUCAGAUUCUGGUGAAUCUGCGAAUUCUGCUGU, the self-cleavage falls from 0.17 to 0.127.

Compared with GGGGGCCACAGCAGAAGCGUUCACGUUGCGGCCCCUGUCAGAUUCUGGUGAAUCUGCGAAUCCUGCUGU, GGGGGCCACAGCAGAAGCGUUCACGUUGCGGCCCCUGUCAGAUUCUGGUGAAUCUGCGAAUGCUGCUGU is higher in self-cleavage: 0.189 for the first, 0.276 for the second.

Going from GGGGGCCACAGCAGAAGCGUUCACGUCACGGCCCCUGUCCGAUUCUGGUGAAUCUGCGAAUUCUGCUGU to GGGGGCCACAGCAGAAGCGUUCACGUUGCGGCCCCUGUCAGAUUCUGGUGAAUCUGCGAAUUCUGCGGU, the self-cleavage rises from 0.15 to 0.4.

Going from GGGGGCCACAGCAGAAGCGUUCACGUCCCGGCCCCUGUCAGAUUCUGCUGAAUCUGCGAAUUCUGCUGU to GGGGGCCACAGCAGAAGCGUUCACGUCACGGCCCCUGUCAGAUUCUGCUGAAUCUGCGAAUUCUGCUGU, the self-cleavage rises from 0.135 to 0.213.

GGGGGCCACAGCAGAAGCGUUCACGUCACGGCCCCUGUCAGAUUCUGUUGAAUCUGCGAAUUCUGCUGU and GGGGGCCACAGCAGAAGCGUUCACGUCACGGCCCCUGUCAGAUUCUGAUGAAUCUGCGAAUUCUGCUGU are the same in self-cleavage: 0.19 for the first, 0.19 for the second.

Going from GGGGGCCACAGCAGAAGCGUUCACGUCCCGGCGCCUGUCAGAUUCUGGUGAAUCUGCGAAUUCUGCUGU to GGGGGCCACAGCAGAAGCGUUCACGUCACGGCCCCUGUCAGAUUCUAGUGAAUCUGCGAAUUCUGCUGU, the self-cleavage rises from 0.166 to 0.22.
